Measurements: article doi:10.1101/2024.06.14.598999 (bioRxiv, 2024)

Experiments:
[1] = target: T1, AP5 ζ/σ5 subcomplex, purified (mouse GST-AP5ζ-Twin-Strep with human AP5σ5) (mouse | human, UniProt Q3U829 1-807; Q9NUS5 1-200); test: SEC
T1 sequence (looked up) 1: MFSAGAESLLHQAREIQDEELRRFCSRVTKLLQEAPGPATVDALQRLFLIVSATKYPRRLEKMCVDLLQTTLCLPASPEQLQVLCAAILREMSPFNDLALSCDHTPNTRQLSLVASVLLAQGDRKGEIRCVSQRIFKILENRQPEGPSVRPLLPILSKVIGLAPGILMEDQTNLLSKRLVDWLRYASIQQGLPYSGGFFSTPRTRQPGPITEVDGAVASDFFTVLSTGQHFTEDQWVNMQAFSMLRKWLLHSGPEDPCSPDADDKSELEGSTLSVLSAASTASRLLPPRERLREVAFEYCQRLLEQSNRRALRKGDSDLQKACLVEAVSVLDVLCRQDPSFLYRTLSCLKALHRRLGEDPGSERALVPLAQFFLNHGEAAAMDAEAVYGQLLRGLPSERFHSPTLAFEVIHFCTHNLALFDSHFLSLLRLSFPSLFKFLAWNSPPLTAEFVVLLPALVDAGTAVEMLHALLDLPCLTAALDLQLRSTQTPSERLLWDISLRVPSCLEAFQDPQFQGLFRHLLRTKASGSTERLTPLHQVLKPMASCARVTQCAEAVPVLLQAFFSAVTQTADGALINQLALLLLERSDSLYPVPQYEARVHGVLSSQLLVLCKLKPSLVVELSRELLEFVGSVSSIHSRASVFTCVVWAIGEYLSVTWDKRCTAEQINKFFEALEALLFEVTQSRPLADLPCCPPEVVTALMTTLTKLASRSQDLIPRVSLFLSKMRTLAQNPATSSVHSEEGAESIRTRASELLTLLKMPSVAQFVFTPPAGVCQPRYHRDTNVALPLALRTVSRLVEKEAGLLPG
T1 sequence (looked up) 2: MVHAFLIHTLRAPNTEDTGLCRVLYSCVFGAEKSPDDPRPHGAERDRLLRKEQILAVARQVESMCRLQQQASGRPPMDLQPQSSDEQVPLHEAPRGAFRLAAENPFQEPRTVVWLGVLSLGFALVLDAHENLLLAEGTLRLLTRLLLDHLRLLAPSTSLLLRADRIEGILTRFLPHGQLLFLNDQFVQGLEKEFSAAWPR

[2] = target: T2, AP5 β5^trunk/µ5 subcomplex, purified (human GST-AP5β5(1-632)-Twin-Strep with mouse AP5μ5) (human | mouse, UniProt Q2VPB7 1-632; Q8BJ63 1-490); test: SEC
T2 sequence (looked up) 1: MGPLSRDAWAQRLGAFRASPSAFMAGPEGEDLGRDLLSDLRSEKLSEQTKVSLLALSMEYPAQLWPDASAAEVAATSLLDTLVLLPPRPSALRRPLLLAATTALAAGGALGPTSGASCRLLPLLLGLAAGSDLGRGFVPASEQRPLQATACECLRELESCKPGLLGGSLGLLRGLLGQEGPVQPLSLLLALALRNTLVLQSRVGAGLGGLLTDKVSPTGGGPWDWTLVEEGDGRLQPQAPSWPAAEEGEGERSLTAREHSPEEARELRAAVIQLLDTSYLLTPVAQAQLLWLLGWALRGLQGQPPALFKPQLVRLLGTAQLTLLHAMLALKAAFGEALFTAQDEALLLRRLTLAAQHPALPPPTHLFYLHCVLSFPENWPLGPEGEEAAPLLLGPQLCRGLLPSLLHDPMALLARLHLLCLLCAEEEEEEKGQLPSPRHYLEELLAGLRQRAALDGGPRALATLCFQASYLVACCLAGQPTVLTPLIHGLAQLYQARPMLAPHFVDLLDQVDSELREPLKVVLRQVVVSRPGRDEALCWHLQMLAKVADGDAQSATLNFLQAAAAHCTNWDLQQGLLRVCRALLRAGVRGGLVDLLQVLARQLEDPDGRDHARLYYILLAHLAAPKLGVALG
T2 sequence (looked up) 2: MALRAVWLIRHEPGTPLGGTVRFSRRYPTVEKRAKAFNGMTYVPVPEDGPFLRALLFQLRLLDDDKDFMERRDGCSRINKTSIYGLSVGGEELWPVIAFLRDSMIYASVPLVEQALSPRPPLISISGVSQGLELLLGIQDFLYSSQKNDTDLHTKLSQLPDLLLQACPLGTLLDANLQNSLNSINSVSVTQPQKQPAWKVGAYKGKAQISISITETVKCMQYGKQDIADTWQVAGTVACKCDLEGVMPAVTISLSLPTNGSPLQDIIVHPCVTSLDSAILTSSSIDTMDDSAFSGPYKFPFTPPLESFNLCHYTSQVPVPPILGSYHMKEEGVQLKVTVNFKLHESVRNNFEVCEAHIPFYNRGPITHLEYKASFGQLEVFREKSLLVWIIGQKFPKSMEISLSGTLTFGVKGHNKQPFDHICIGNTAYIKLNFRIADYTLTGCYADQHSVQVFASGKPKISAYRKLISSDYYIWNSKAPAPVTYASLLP

- binding result [1]: binds
- binding result [2]: binds
B1: SPG11^WD40-hairpin (human SPG11 residues 1-525) as incubated with the AP5 subcomplexes for size exclusion chromatography (domain or fragment, UniProt Q96JI7 1-525, looked up)
chain: MAAEEGVASAASAGGSWGTAAMGRVLPMLLVPVPAEAMGQLGSRAQLRTQPEALGSLTAAGSLQVLSLTPGSRGGGRCCLEGPFWHFLWEDSRNSSTPTEKPKLLALGENYELLIYEFNLKDGRCDATILYSCSREALQKLIDDQDISISLLSLRILSFHNNTSLLFINKCVILHIIFPERDAAIRVLNCFTLPLPAQAVDMIIDTQLCRGILFVLSSLGWIYIFDVVDGTYVAHVDLALHKEDMCNEQQQEPAKISSFTSLKVSQDLDVAVIVSSSNSAVALNLNLYFRQHPGHLLCERILEDLPIQGPKGVDEDDPVNSAYNMKLAKFSFQIDRSWKAQLSSLNETIKNSKLEVSCCAPWFQDILHLESPESGNHSTSVQSWAFIPQDIMHGQYNVLQKDHAKTSDPGRSWKIMHISEQEEPIELKCVSVTGFTALFTWEVERMGYTITLWDLETQGMQCFSLGTKCIPVDSSGDQQLCFVLTENGLSLILFGLTQEEFLNRLMIHGSASTVDTLCHLNGWGR
